Literature values in publication PMC3057930.

Molecular target: CaMKIIp (UniProt Q9UQM7)
Sequence (Q9UQM7 293-312): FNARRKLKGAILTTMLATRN

Question: With “(Ca2+)2-CaM76-148 76-148 (from UniProt P0DP29)” as the substance, how does the Kd read?
Answer: Its Kd is 950 nM.
